In article PMC3213697:

Key:
Assay in all cases: SEC; gel filtration chromatography of the refolded precursor proteins after heparin affinity chromatography; peak D, dimer
[1] = molecular target: C313A myostatin precursor protein (UniProt O14793)
[2] = molecular target: C313Y myostatin precursor protein (UniProt O14793)
[3] = molecular target: C374A myostatin precursor protein (UniProt O14793)

“C313A myostatin precursor protein (from UniProt O14793 24-375) (natural protein)” gave a stoichiometry N [1] of 2.
“C313Y myostatin precursor protein (from UniProt O14793 24-375) (natural protein)” showed a stoichiometry N [2] of 2.
“C374A myostatin precursor protein (from UniProt O14793 24-375) (natural protein)” was tested, and the stoichiometry N [3] was 2.
